Tested on: c-Met and EGFR
Assay: Co-localization of c-Met and EGFR by confocal microscopy
Type: cell-based
Conditions: 1 μg/mL, 37° C., 4 hours; MKN45 and EBC1 cell lines; FIGS. 7 and 8
Method: The MKN45 cell line and the EBC1 cell line were prepared in amounts of 4×10^4 cell/well, respectively, to which L3-1Y-IgG2 prepared in Reference Example 1, anti-EGFR scFv prepared in Reference Example 2, and the anti-c-Met/anti-EGFR bispecific antibody ME03S prepared in Example 1 were each added individually or in combination to result in the concentration of 1 μg/mL per well (in case of the combination treatment, to result in 1 μg/mL each) and treated at 37° C. for 4 hours. The cells were treated with 4% (v/v) formaldehyde for 15 min to immobilize them on a plate, and washed three times with PBS. Thereafter, the cells were treated with a blocking buffer (0.5% triton x-100 and 5% donkey serum) at a room temperature for one hour and then treated with a 1:100 dilution of the first antibodies (c-Met primary antibody; #FAB3582A, R&D systems, EGFR primary antibody; #5616, Cell signaling) against c-Met and EGFR, respectively in amounts of 100 μA at 4° C. for 15 hours. After the cells were washed three time with PBS, they were treated with a 1:2000 dilution of the secondary antibody (#A21433, Invitrogen) in an amount of 100 μA at a room temperature for 1 hour and washed three times with PBS to prepare a plate with a mounting medium (#H-1200, Vector).

B1: anti-EGFR scFv: scFv with heavy chain variable region SEQ ID NO: 109, (GGGGS)3 linker, light chain variable region SEQ ID NO: 111 (antibody, V domains shown)
VH: QVQLVQSGAEVKKPGSSVKVSCKASGFTFTDYKIHWVRQAPGQGLEWMGYFNPNSGYSTYAQKFQGRVTITADKSTSTAYMELSSLRSEDTAVYYCARLSPGGYYVMDAWGQGTTVTVSS
VL: DIQMTQSPSSLSASVGDRVTITCRASQGINNYLNWYQQKPGKAPKRLIYNTNNLQTGVPSRFSGSGSGTEFTLTISSLQPEDFATYYCLQHNSFPTFGQGTKLEIKRT
modifications: (GGGGS)3 linker; Synthetic (heavy-chain variable region of anti-EGFR antibody); Synthetic (light-chain variable region of anti-EGFR antibody)
In the case of B1, the “location of c-Met and EGFR in the cells” value is reported as “EGFR still locates on cell membranes”.

Source: patent US9657104B2, “Anti-c-Met/anti-EGFR bispecific antibodies” (Samsung Electronics Co., Ltd., priority 2013, dated 2017)
